Measurements from patent US7696171.
Where two headings read alike, the source gives them in different places.

Legend:
[1] = molecular target: FGF receptor (FGFR); assay: cell-based or functional assay
[2] = molecular target: FGF receptor (FGFR); assay: cell-based or functional assay; remark: listed apart in the source

mitogenic activity (NIH 3T3 fibroblast proliferation, EC50) (fold reduction) [1]	mitogenic activity (NIH 3T3 fibroblast proliferation, EC50) (fold reduction) [2]	Substance
2	3	FGF-1 Glu87→Val/Pro134→Val mutant (in the WT* Cys117→Val background) (from UniProt P05230 16-155) (ligand)
	1000	FGF-1 Lys12→Val/Asn95→Val mutant (in the WT* Cys117→Val background) (from UniProt P05230 16-155) (ligand)
